Data: publication PMC9785488, “EBF1 Negatively Regulates Brassinosteroid-Induced Apical Hook Development and Cell Elongation through Promoting BZR1 Degradation” (International Journal of Molecular Sciences, 2022)

Target: T1, MBP-EBF1 (Arabidopsis thaliana, UniProt Q9SKK0 1-628)
T1 construct: EBF1, Arabidopsis thaliana, AT2G25490; source: purified using amylose resin
T1 sequence (looked up): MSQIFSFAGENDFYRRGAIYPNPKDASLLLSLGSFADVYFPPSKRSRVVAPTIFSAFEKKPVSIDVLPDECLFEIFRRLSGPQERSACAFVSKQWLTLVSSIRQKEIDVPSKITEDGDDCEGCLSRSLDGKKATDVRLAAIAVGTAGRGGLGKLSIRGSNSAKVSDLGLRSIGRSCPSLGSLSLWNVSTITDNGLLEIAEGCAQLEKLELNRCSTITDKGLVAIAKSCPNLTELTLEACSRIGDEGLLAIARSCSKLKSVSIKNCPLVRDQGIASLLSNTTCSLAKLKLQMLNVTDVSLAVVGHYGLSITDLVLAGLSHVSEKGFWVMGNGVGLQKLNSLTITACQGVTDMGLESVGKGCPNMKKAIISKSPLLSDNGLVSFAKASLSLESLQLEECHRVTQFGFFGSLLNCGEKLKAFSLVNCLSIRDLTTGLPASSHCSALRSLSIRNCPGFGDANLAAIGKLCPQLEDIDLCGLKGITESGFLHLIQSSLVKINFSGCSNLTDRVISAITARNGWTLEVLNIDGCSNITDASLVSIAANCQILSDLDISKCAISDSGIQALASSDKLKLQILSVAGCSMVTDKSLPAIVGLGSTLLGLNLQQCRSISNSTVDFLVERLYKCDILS
Assay: pull-down; glutathione beads with 1 µg GST-BZR1 incubated with 1 µg MBP or MBP-EBF1; 20 mM Tris-HCl pH 7.5, 100 mM NaCl, 1 mM EDTA; washed 10 times with 300 mM NaCl, 0.5% Triton X-100; immunoblot with anti-MBP
Settings: both partners purified

B1: GST-BZR1 (natural protein, Arabidopsis thaliana, UniProt Q8S307 1-336, looked up)
chain: MTSDGATSTSAAAAAAAAAAARRKPSWRERENNRRRERRRRAVAAKIYTGLRAQGDYNLPKHCDNNEVLKALCVEAGWVVEEDGTTYRKGCKPLPGEIAGTSSRVTPYSSQNQSPLSSAFQSPIPSYQVSPSSSSFPSPSRGEPNNNMSSTFFPFLRNGGIPSSLPSLRISNSCPVTPPVSSPTSKNPKPLPNWESIAKQSMAIAKQSMASFNYPFYAVSAPASPTHRHQFHTPATIPECDESDSSTVDSGHWISFQKFAQQQPFSASMVPTSPTFNLVKPAPQQMSPNTAAFQEIGQSSEFKFENSQVKPWEGERIHDVGMEDLELTLGNGKARG
notes: BZR1, Arabidopsis thaliana, At1G75080; also called glutathione S-transferase (GST) fusion protein GST-BZR1; source: bacteria, purified (glutathione beads)
Does B1 bind?
Result: binds
